Results: publication PMC3947372 (Journal of molecular biology, 2013)

Target: the molecule itself
Assay: crystal structure

B1: NaVAe1p, pore-only sodium channel protein derived from the Alkalilimnicola ehrlichei BacNaV NaVAe1 (domain or fragment)
chain: LLRAIPGIAWIALLLLVIFYVFAVMGTKLFAQSFPEWFGTLGASMYTLFQVMTLESWSMGIARPVIEAYPWAWIYFVSFILVSSFTVLNLFIGIIIESMQSAHWEAEDAKRIEQEQRAHDERLEMLQLIRDLSSKVDRLERRSGKR
stoichiometry N: 4
